The source of these data is PMC3526519, “Rationally re-designed mutation of NAD-independent L-lactate dehydrogenase: high optical resolution of racemic mandelic acid by the engineered Escherichia coli” (Microbial Cell Factories, 2012).

One series relates to T1, O=C(O)[C@@H](O)c1ccccc1.
T1 construct: membrane flavoprotein; wild-type prepared as in earlier report
The series is described as follows: purified protein. It counts as biochemical, Stutzerimonas stutzeri. The conditions noted are these: 0.0625 mM DCIP as electron acceptor, 50 mM Tris-HCl pH 7.5, 30 °C.

The subject of a further series is T2, C[C@H](O)C(=O)O.
T2 construct: membrane flavoprotein; wild-type prepared as in earlier report
The series is described as follows: purified protein. It counts as biochemical, Stutzerimonas stutzeri. The conditions noted are these: 0.0625 mM DCIP as electron acceptor, 50 mM Tris-HCl pH 7.5, 30 °C.

In series [1] the target is T3, L-iLDH (NAD-independent L-lactate dehydrogenase) (Stutzerimonas stutzeri, UniProt I1SLB1, V108A).
T3 construct: gene lldD; membrane flavoprotein; wild-type prepared as in earlier report
T3 sequence (I1SLB1 1-391 V108A): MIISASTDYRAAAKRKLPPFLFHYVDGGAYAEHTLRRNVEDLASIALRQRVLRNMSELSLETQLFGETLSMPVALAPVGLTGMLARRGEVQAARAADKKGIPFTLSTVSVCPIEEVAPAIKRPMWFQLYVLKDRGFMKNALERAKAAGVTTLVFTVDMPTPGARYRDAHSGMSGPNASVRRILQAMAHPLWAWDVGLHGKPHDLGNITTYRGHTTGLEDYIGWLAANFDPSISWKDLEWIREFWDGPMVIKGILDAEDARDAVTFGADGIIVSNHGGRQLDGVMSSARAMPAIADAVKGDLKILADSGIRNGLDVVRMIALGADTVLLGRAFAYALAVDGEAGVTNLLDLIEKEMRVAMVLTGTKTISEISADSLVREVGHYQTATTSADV
The series is described as follows: DCIP reduction at […] nm, double-reciprocal plots. It counts as biochemical. The conditions noted are these: competitive versus L-mandelate; 0.0625 mM DCIP, 50 mM Tris-HCl pH 7.5, 30 °C.

Substrate in series [2]: O=C(O)[C@@H](O)c1ccccc1
The series is described as follows: purified protein. It counts as biochemical, Stutzerimonas stutzeri. The note with it: 0.0625 mM DCIP as electron acceptor, 50 mM Tris-HCl pH 7.5, 30 °C.

Substrate in series [3]: C[C@H](O)C(=O)O
The series is described as follows: purified protein. It counts as biochemical, Stutzerimonas stutzeri. The note with it: 0.0625 mM DCIP as electron acceptor, 50 mM Tris-HCl pH 7.5, 30 °C.

In general, Km refers to the substrate concentration at which the rate is half of its maximum. One may read the kcat as the maximal rate divided by the concentration of active sites. As a reminder, the kcat/Km is the turnover number divided by the Michaelis constant. On to “L-iLDH (NAD-independent L-lactate dehydrogenase) (Stutzerimonas stutzeri; V108A)”, for which, in the series on O=C(O)[C@@H](O)c1ccccc1, the Km is 1600 ± 100 µM, the kcat was found to be 97 ± 13 s⁻¹ and the kcat/Km was 61000 M⁻¹ s⁻¹. In the series on C[C@H](O)C(=O)O, the Km was 800 ± 100 µM, the kcat came to 185 ± 36 s⁻¹ and the kcat/Km came to 231000 M⁻¹ s⁻¹.
As usually defined, the Ki is the dissociation constant of the complex between target and ligand, obtained from inhibition or displacement. Read a high Ki as a looser hold on the target. For the molecule `O=C(O)[C@H](O)c1ccccc1` [D-mandelate], the Ki in series [1] came out at 5.5 ± 0.5 mM.

B1: L-iLDH (NAD-independent L-lactate dehydrogenase) (Stutzerimonas stutzeri) (protein)
chain: MIISASTDYRAAAKRKLPPFLFHYVDGGAYAEHTLRRNVEDLASIALRQRVLRNMSELSLETQLFGETLSMPVALAPVGLTGMLARRGEVQAARAADKKGIPFTLSTVSVCPIEEVAPAIKRPMWFQLYVLKDRGFMKNALERAKAAGVTTLVFTVDMPTPGARYRDAHSGMSGPNASVRRILQAMAHPLWAWDVGLHGKPHDLGNITTYRGHTTGLEDYIGWLAANFDPSISWKDLEWIREFWDGPMVIKGILDAEDARDAVTFGADGIIVSNHGGRQLDGVMSSARAMPAIADAVKGDLKILADSGIRNGLDVVRMIALGADTVLLGRAFAYALAVDGEAGVTNLLDLIEKEMRVAMVLTGTKTISEISADSLVREVGHYQTATTSADV
notes: membrane flavoprotein; wild-type prepared as in earlier report
Turning to B1, in the series “purified protein [2]”, the Km stood at 6800 ± 1000 µM, the kcat turned out to be 8.3 ± 1.3 s⁻¹ and the kcat/Km was 1200 M⁻¹ s⁻¹. Further, in the series “purified protein [3]”, the Michaelis constant (Km) is 180 ± 10 µM, the kcat turned out to be 445 ± 44 s⁻¹ and the kcat/Km is 2.47e+06 M⁻¹ s⁻¹.
